Positions count from the first letter of the chain named. In names and notes the source's numbering stands. Where no end group is shown, it is not given here. [ ]: non-standard residue; d: D form. pT = C[C@@H](OP(=O)(O)O)[C@H](N)C(=O)O; pS = N[C@@H](COP(=O)(O)O)C(=O)O

These results are taken from publication PMC8391104, “Molecular mechanism of Mad1 kinetochore targeting by phosphorylated Bub1” (EMBO Reports, 2021).

T1: Mad1^CTD R630A (human, UniProt Q9Y6D9 597-718, R630A)
T1 construct: also called Mad1 R630A mutant; source: E. coli Rosetta 2 (DE3), purified (Strep-Tactin, TEV cleavage, Resource Q, Superdex 75); not shown: double Strep, N-terminal, cleaved; His6, N-terminal, cleaved
T1 sequence (looked up): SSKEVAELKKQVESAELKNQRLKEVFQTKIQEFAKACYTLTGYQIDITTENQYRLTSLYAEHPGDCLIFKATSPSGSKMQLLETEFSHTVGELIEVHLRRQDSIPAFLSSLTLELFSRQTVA

T2: Mad1^CTD I643A (human, UniProt Q9Y6D9 597-718, I643A)
T2 construct: also called alanine substitution of Ile643; source: E. coli Rosetta 2 (DE3), purified (Strep-Tactin, TEV cleavage, Resource Q, Superdex 75); not shown: double Strep, N-terminal, cleaved; His6, N-terminal, cleaved
T2 sequence (looked up): T1 sequence (looked up) with A34R, I47A

T3: Mad1^CTD R650A (human, UniProt Q9Y6D9 597-718, R650A)
T3 construct: also called alanine substitution of Arg650; source: E. coli Rosetta 2 (DE3), purified (Strep-Tactin, TEV cleavage, Resource Q, Superdex 75); not shown: double Strep, N-terminal, cleaved; His6, N-terminal, cleaved
T3 sequence (looked up): T1 sequence (looked up) with A34R, R54A

T4: Mad1^CTD QRI triple mutant (Q627A, R650A, I643A) (human, UniProt Q9Y6D9 597-718, Q627A | I643A | R650A)
T4 construct: also called triple alanine mutant; source: E. coli Rosetta 2 (DE3), purified (Strep-Tactin, TEV cleavage, Resource Q, Superdex 75); not shown: double Strep, N-terminal, cleaved; His6, N-terminal, cleaved
T4 sequence (looked up): T1 sequence (looked up) with Q31A, A34R, I47A, R54A

T5: Mad1^CTD QRRI quadruple mutant (Q627A, R630A, I643A, R650A) (human, UniProt Q9Y6D9 597-718, Q627A | R630A | I643A | R650A)
T5 construct: source: E. coli Rosetta 2 (DE3), purified (Strep-Tactin, TEV cleavage, Resource Q, Superdex 75); not shown: double Strep, N-terminal, cleaved; His6, N-terminal, cleaved
T5 sequence (looked up): T1 sequence (looked up) with Q31A, I47A, R54A

T6: Mad1^CTD R617A (human, UniProt Q9Y6D9 597-718, R617A)
T6 construct: also called R617A mutant of Mad1; source: E. coli Rosetta 2 (DE3), purified (Strep-Tactin, TEV cleavage, Resource Q, Superdex 75); not shown: double Strep, N-terminal, cleaved; His6, N-terminal, cleaved
T6 sequence (looked up): T1 sequence (looked up) with R21A, A34R

T7: Mad1^CTD K619A (human, UniProt Q9Y6D9 597-718, Substituting Ala for Lys619)
T7 construct: also called Ala for Lys619; source: E. coli Rosetta 2 (DE3), purified (Strep-Tactin, TEV cleavage, Resource Q, Superdex 75); not shown: double Strep, N-terminal, cleaved; His6, N-terminal, cleaved
T7 sequence (looked up): T1 sequence (looked up) with K23A, A34R

T8: Mad1^CTD Q627A (human, UniProt Q9Y6D9 597-718, Q627A)
T8 construct: also called alanine substitution of Gln627; source: E. coli Rosetta 2 (DE3), purified (Strep-Tactin, TEV cleavage, Resource Q, Superdex 75); not shown: double Strep, N-terminal, cleaved; His6, N-terminal, cleaved
T8 sequence (looked up): T1 sequence (looked up) with Q31A, A34R

B1: phosphorylated Bub1^CD1 peptide with an additional N-terminal tryptophan (peptide)
peptide: WKVQP[pS]P[pT]VHTKEALGFIMNMFQAPTS
notes: additional N-terminal tryptophan, added to confirm the peptide concentration; Bub1 conserved domain 1 (CD1), human, stated as residues 455-479; also called Bub1^CD1 peptide with an N-terminal tryptophan residue; source: synthetic peptide (Designer Bioscience UK, 95% purity)
B2: Mad1 C-terminal domain (Mad1^CTD) homodimer, residues 597-718 (domain or fragment, human, UniProt Q9Y6D9 597-718, looked up)
chain: T1 sequence (looked up) with A34R
notes: the C-terminal residue is Ala718; For NMR the same construct was made 15N-labelled or 2H,13C,15N-labelled in M9 minimal medium; also called wild-type Mad1^CTD; WT Mad1^CTD; source: E. coli Rosetta 2 (DE3), purified (Strep-Tactin, TEV cleavage, Resource Q, Superdex 75); not shown: double Strep, N-terminal, cleaved; His6, N-terminal, cleaved
B3: Mad1^CTD L618A (domain or fragment, human, UniProt Q9Y6D9 597-718, looked up)
chain: T1 sequence (looked up) with L22A, A34R
notes: Poorly expressed, aggregated easily, eluted broadly; the authors suspect mis-folding of the dimer; also called L618A mutant; source: E. coli Rosetta 2 (DE3), purified (Strep-Tactin, TEV cleavage, Resource Q, Superdex 75); not shown: double Strep, N-terminal, cleaved; His6, N-terminal, cleaved
B4: Mad1^CTD F629A (domain or fragment, human, UniProt Q9Y6D9 597-718, looked up)
chain: T1 sequence (looked up) with F33A, A34R
notes: Poorly expressed, prone to aggregate; the authors suspect a disrupted Mad1 conformation; also called F629A mutant; source: E. coli Rosetta 2 (DE3), purified (Strep-Tactin, TEV cleavage, Resource Q, Superdex 75); not shown: double Strep, N-terminal, cleaved; His6, N-terminal, cleaved
B5: doubly phosphorylated Bub1^CD1 peptide (pSer459-pThr461) (peptide)
peptide: KVQP[pS]P[pT]VHTKEALGFIMNMFQAPTS
notes: Bub1 conserved domain 1 (CD1), human, stated as residues 455-479; also called pSer459-pThr461 peptide; source: synthetic peptide (Designer Bioscience UK, 95% purity)

In data set [1] the target is B2. Put plainly: AUC; sedimentation equilibrium; 20 µM Mad1^CTD with 20 or 40 µM Bub1^CD1 peptide; 20 mM HEPES pH 7.5, 100 mM NaCl, 1 mM TCEP; 20°C; two-species model. As to conditions: both partners purified.
Data set [2] concerns the molecule itself. Described as above.
Data set [3] deals with the molecule itself. Put plainly: SEC-MALS; 100 µl of purified protein at 0.5-2.0 mg/ml on Superdex 200 Increase 10/300 GL, 0.5 ml/min.
The next data set concerns the target T1, Mad1^CTD R630A. Put plainly: ITC; Bub1^CD1 peptide (0.3-1.5 mM) titrated into Mad1 (30-100 µM) in the cell; 20°C; 20 mM HEPES pH 7.5, 100 mM NaCl, 1 mM TCEP; single-site model; stoichiometry counted on dimeric Mad1^CTD. The following applies: both partners purified.
For the next data set, the target named is T2, Mad1^CTD I643A. The description is as above. The following applies: both partners purified.
In another data set the target is T3, Mad1^CTD R650A. Described as above. The following applies: both partners purified.
The target in data set [4] is T4, Mad1^CTD QRI triple mutant (Q627A, …). Described as above. The following applies: both partners purified.
In data set [5] the target is T5, Mad1^CTD QRRI quadruple mutant (Q627A, …). The description is as above. The following applies: both partners purified.
The target in a further data set is T6, Mad1^CTD R617A. Described as above. As to conditions: both partners purified.
For another data set, the target named is T7, Mad1^CTD K619A. Described as above. As to conditions: both partners purified.
The next data set has as its target T8, Mad1^CTD Q627A. Described as above. The following applies: both partners purified.

Regarding B1, the stoichiometry N (in general, a count of units in the complex or per binding partner) in [1] is 1 peptide per Mad1^CTD dimer.

In the case of B2, the “stoichiometry N” value in data set [2] amounted to 2.

Consider B3, for which the “stoichiometry N” value in [3] turned out to be 2.

For B4, the “stoichiometry N” value in [3] worked out at 2.

B5: the Kd (usually the constant that tells how readily two partners part at equilibrium) with Mad1^CTD R630A was determined as 10 µM; in [4], 14.5 µM; in data set [5] it was 25 µM; with Mad1^CTD R617A, 3000 µM; in the data set with Mad1^CTD K619A, 10 µM. Moreover, the binding result with Mad1^CTD I643A, with Mad1^CTD R650A and with Mad1^CTD Q627A was “binds” in each case.
